Results as given in the supplement of paper PMC12042874.
± gives the uncertainty stated by the source.

Experiment: amyloid nucleation score (Sup35N fusion, yeast selection) (log enrichment); library NNK1; higher = more nucleation; inactive = no reads after selection
How it was run: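 For the nucleation score, DiMSum gave the log enrichment of output over input reads, centred on the mode score of non-aggregating sequences. Psi-negative yeast expressing Sup35N fused to peptides of 20 random codons were induced with 100 μM copper sulfate for 24 hours and grown 7 days at 30°C on medium lacking adenine and uracil. Input and output plasmid inserts were Illumina-sequenced, and sequences with under 100 input reads were excluded.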

Row | Substance | amyloid nucleation score
1 | LNRRLGDVEPIYAGLTSQQS | 0.313 ± 0.3
2 | SHGKVVIFSPSHCAGFFSCS | 7.699 ± 0.061
3 | DVTAPRLQIGLKVKHMKPFF | 0.423 ± 0.42
4 | FRFRLGNFGLRFRGYPERII | 0.405 ± 0.3
5 | DTLVDVVFDADVV | 0.26 ± 0.28
6 | QLETTLFGNAEACLFSSKGR | 0.522 ± 0.49
7 | YGLFWN | -1.37 ± 1.5
8 | LFIVSNFLWLIPKWTNSAKF | -1.66 ± 1.4
9 | KNHYYFA | -0.203 ± 0.38
10 | YGGIVNDVFAGLQNIMGVAL | 0.334 ± 0.54
11 | FSSFESCCRRYSSM | 0.576 ± 0.93
12 | RSNFELSLSALKVMLFVGHK | inactive
13 | MSDCPACGCSCHRSKLISGF | -0.414 ± 0.5
14 | VAISDDDVLVWMYFS | 0.154 ± 0.44
15 | FDPCYTHALWLFGDVKARCM | -0.083 ± 0.37
16 | VYWRFPRSNGEWYNMLVLKD | -0.576 ± 0.53
17 | GTFSGQKLCYVCVSLSGFG | 0.005 ± 0.5
18 | ISVLVHMMRKAFVQG | 0.768 ± 0.39
19 | YPYNWSPYEAASIVAVQNYQ | -1.44 ± 1.5
20 | SPPLSASS | -0.476 ± 1.9
21 | HSIDLGTFDGFFKIRLSSTT | 0.598 ± 0.78
22 | TSVSNMFENPKNLSLVPTVG | 1.94 ± 0.5
23 | CVHLSKRCKLPVKIISLCLN | 0.767 ± 1
24 | VKSWKLERRMRVAMLDTLVI | 0.367 ± 1.2
25 | YIRGNFYSYQWGNCFMGNFC | 7.792 ± 0.05

Row | Substance | amyloid nucleation score
26 | ESNVWICAPPTDPWAIQTLR | -0.149 ± 0.51
27 | LPNSMLSSGLGWSSINFF | 1.16 ± 0.7
28 | CYVVKVLFRPIY | 1.01 ± 0.97
29 | MNYFVMSHSNKLDASLCWRR | 1.52 ± 0.25
30 | VRDGDTMILGVYRNIWGTNV | 0.429 ± 0.24
31 | SLRFPKKGYVTRCTAWYLGV | 3.45 ± 0.083
32 | RYRRATTQFAKGHCRSLSFK | 0.91 ± 0.47
33 | AIWVDVTLFTEKADWVSLRR | 2.42 ± 0.28
34 | VPSNLQGSPFPQLGMSALVH | 0.149 ± 0.62
35 | NLSCAE | -0.288 ± 0.71
36 | TRCYFNSLMCTDTNSCIAGV | -0.135 ± 0.26
37 | KMSGTLQ | -0.115 ± 1.4
38 | GWTTYPSNN | 0.996 ± 0.37
39 | YSVDKIAYFGINKCRTVLWE | 1.09 ± 0.52
40 | FKYRVGDTSCMVCNVWYGGD | 7.552 ± 0.057
41 | VGNRSFNIFGTMCKMLQWTE | -0.715 ± 1.1
42 | FRDMYCARNIACSFLLVVAC | 1.1 ± 0.19
43 | ITYKSFYHIQCFSGTSCKRF | 3.1 ± 0.11
44 | MLFNTHHVYLSTM | 0.987 ± 0.53
45 | TISAI | 0.142 ± 0.92
46 | IVWESLFNKFAITVGMLGFM | 1.63 ± 0.43
47 | TRLCFGFWAKIEWMRSVSGV | 0.082 ± 0.64
48 | TTTKLGPMLLGRNSVYCV | 2.31 ± 0.25
49 | YGKWWWVYRKTSVRRGDGAG | 0.49 ± 0.54
50 | ASVILIVPINLYLYVVYVWI | 3.2 ± 0.15

Row | Substance | amyloid nucleation score
51 | GSCVWFSGNRVPTFWWSGDS | -0.046 ± 0.31
52 | AIVVKNDFTGSPRF | inactive
53 | VRNDQRLLCRRFVKFSDFQS | -0.62 ± 0.95
54 | VWEQLIAE | -0.26 ± 0.84
55 | SYSSVVSVYFLQIYFF | 4.05 ± 0.054
56 | SNRLLGVEAGVGCEIVKYNR | -0.301 ± 0.38
57 | GCALPQYKILWSFRFYWVGN | inactive
58 | YFRLHSFFFVESQGICVELR | -0.251 ± 0.69
59 | WEGGGMGNYVQRHACARHKV | 0.125 ± 0.3
60 | GQIDGCGTRVNT | 2.17 ± 0.14
61 | CHEALDLMCHADTVIFALAE | -0.216 ± 0.57
62 | YMAFYPCWVHHKMIEKLCRC | -0.076 ± 0.71
63 | FTLHVSFRGSDDIKSVFYCS | 3.29 ± 0.11
64 | NSVYGTIDYGPHCFVNEGNF | inactive
65 | MNRYFFYLIRVFLRGYH | -0.094 ± 0.64
66 | AVIEYR | -0.582 ± 0.32
67 | HKNSTVKSVWQDLMSDVDVD | -0.028 ± 0.43
68 | FGSQVFTDGHMCMQSGGTWC | 0.223 ± 0.34
69 | PGSVDCTVGD | -0.048 ± 0.65
70 | WYVFLYFGCEKAMALSTNMT | inactive
71 | LVRDHRYFEFLASV | 0.381 ± 0.39
72 | EHLISYATYEVLVSTWNSFE | inactive
73 | ADLLVVGVPSFNFWSSKVFV | inactive
74 | ALITFSRGWLAPLMGQQMVL | inactive
75 | WYRGMHLVARRFMTYLARKY | 1.32 ± 0.65

Row | Substance | amyloid nucleation score
76 | CTWWSMWNNNWDKFLTREQL | 0.19 ± 1.1
77 | IRTMSGNDKPI | -0.36 ± 0.33
78 | LSSTDFLGSDVDCFGNCNFL | 3.48 ± 0.13
79 | KFMLWPNIWMN | 0.916 ± 0.54
80 | GVPYR | 0.044 ± 0.68
81 | YFSDIAMWHSEIVR | -0.605 ± 0.73
82 | TYWYSVRNVAQLCPVEGYQS | -0.102 ± 0.7
83 | DPVYGLYGALFAMNPFMDYL | -0.427 ± 0.56
84 | KDQTTYMDCFV | 0.101 ± 0.49
85 | GHLSA | inactive
86 | CKYVRTQVWSHRLPADNCLT | -0.997 ± 0.98
87 | WRSNI | -0.151 ± 0.49
88 | SSPKTRMVEGVCCYFVGSIY | 0.704 ± 1.2
89 | FFRTSLCYDLVNSDEVDIIV | 0.411 ± 0.51
90 | LYGYCFMLVSRESFLVRSGW | -0.272 ± 0.52
91 | SFRKRQVVLVSANNDSVWKC | -0.097 ± 0.57
92 | TLDLTHNLCLG | 0.491 ± 0.37
93 | GNFMNRCAFRRMGYSTISIN | 1.35 ± 0.47
94 | MNNKDDAVYVEHL | 0.072 ± 0.23
95 | NMDSNAIGGGGNGGVRLQSR | -0.76 ± 0.55
96 | NDYNWKYGFLRWCVLYEVM | 0.117 ± 0.4
97 | MIVILTGLLSTNGNLS | 1.64 ± 0.39
98 | CKVSSSFS | 0.258 ± 0.34
99 | VFPFPLGFDFKNHERKSVV | -1.24 ± 0.58
100 | FSVGYDNGMDNM | 0.426 ± 0.29

Row | Substance | amyloid nucleation score
101 | DGLSFLMEHLCVNTLCKGSR | -0.075 ± 0.34
102 | HHIDPHDSFIS | 0.711 ± 0.93
103 | LDCINRERYIHFMR | 1.92 ± 0.5
104 | GWTCYLSVGRIRF | 1.94 ± 0.11
105 | FSCVIGFPKHRNDTLVTERA | 6.65 ± 0.067
106 | TARYTGGNTNIRSGKFLVWI | 0.075 ± 0.35
107 | FYWHHWTNLAIIVEYILGEW | 0.571 ± 1.2
108 | GHAEIYMWTLGIPSRLFGAI | 0.049 ± 0.45
109 | HVSSSE | -0.174 ± 1.1
110 | DRRSIAGFHCCWNSKVMVSP | -0.83 ± 0.88
111 | SWLDLNLIDHQAFAFSSFGL | -0.043 ± 0.45
112 | TFSRRASDFEVNV | -1.25 ± 2.7
113 | CPAWFFCIVKKYFKTVAQTV | 0.291 ± 0.48
114 | EMKATIHLMLKINNTWFSVP | 2.07 ± 0.11
115 | LYLAQFQGNGDLFSVPPCKV | 0.16 ± 0.64
116 | YMASYGNLVGMFDAIQVLIV | 1.08 ± 0.31
117 | HVGIDIAVTWLQVKRVAMAS | 0.037 ± 0.31
118 | LNSAVDMGCFVVNLYMLCIY | 4.22 ± 0.059
119 | IFYSSFS | inactive
120 | LISVCRFLAIILFRTFA | 0.365 ± 0.69
121 | RSLALEKLCSWSV | -1.38 ± 2.7
122 | MEVKISVRFQFVLI | -0.355 ± 0.6
123 | IIIACFVSCNELVGVSVIKT | 0.037 ± 0.25
124 | MIHEVTLY | 0.359 ± 0.41
125 | ITEVLKNVKKWFCFIRISVG | 0.113 ± 0.5

Row | Substance | amyloid nucleation score
126 | GMVSIL | -0.278 ± 1.2
127 | IGSGYW | -0.091 ± 0.52
128 | SSVGKLGDPWL | -1.15 ± 0.53
129 | MSHFCLSLGAAASMNPLQLG | -0.309 ± 1.1
130 | CEVRFLCWYGFIWRYN | -0.336 ± 0.74
131 | FWAHMMRIASNYKFSLYL | inactive
132 | ENTLRSYRLGHKVEWLMELG | -0.363 ± 0.39
133 | LYVYTYYVMVLVGQKR | -0.698 ± 0.93
134 | IEIIIASSGHHHYIKRDNVY | 0.652 ± 0.58
135 | DPVSIMTGRQDPRGCGVTCF | -1.96 ± 2.7
136 | FICGDLNCQQTSSFCFLDYS | 7.296 ± 0.051
137 | DVGLFMK | -0.686 ± 0.53
138 | ELVSVGLSAIHSSDYNFSFN | 0.45 ± 0.7
139 | SSLPDAWVYLGSSWLEDHGR | 0.461 ± 0.7
140 | GNTVRYVKRMYY | -0.056 ± 0.5
141 | LGLDTEVVGPGPGGYHLWQK | 0.112 ± 0.27
142 | RASWNMNFSNFFDKMCRIPS | -0.334 ± 0.35
143 | HIVQRCFHVIYCSRVFYVLY | 0.386 ± 0.53
144 | GFDKMMCWYYGLTVIVMDGS | -0.076 ± 0.25
145 | TRYVNMIFPPLVCWGDEILW | 0.873 ± 0.77
146 | NVRLHVVYVSPSYACFIWSW | 0.343 ± 1.4
147 | RFSDT | -0.568 ± 0.3
148 | SHRYFKWLRSIDEEVVESL | 0.677 ± 0.9
149 | GRSCKFCYVTWVVPEP | 1.25 ± 0.2
150 | KMMPWVLLGRKLRLWRLCTK | -0.463 ± 0.56

Row | Substance | amyloid nucleation score
151 | YRHSDANKHLGGAIQF | -0.519 ± 0.53
152 | FLVMREFMIGCVRAG | 0.186 ± 0.97
153 | LWLHGGARNVDMCKVIFYFG | 6.94 ± 0.088
154 | GFLTVNYWHSEV | 0.065 ± 0.21
155 | KVGYLYEAIGGKDDL | -0.605 ± 1.1
156 | RCGCRRVVFDGFIGIGALRA | 0.298 ± 0.6
157 | CVWMVETRQWREGFKCMPER | 0.532 ± 0.97
158 | ASAWARNVVRSTVMKVSWVG | 0.543 ± 0.45
159 | GKWPRRSW | 0.376 ± 1.1
160 | PDIRYAFVNFDYLATIWVNG | -1.86 ± 1.7
161 | NHMSGIDKGIMRLGEWLGEW | -1 ± 0.83
162 | PGVNKVHLYKESIIYLLAVS | inactive
163 | VNSIESCANFH | -0.198 ± 1.7
164 | FLSVFRL | -0.884 ± 1.1
165 | VNMSKHYRRGWGDDVATGVR | 0.693 ± 0.49
166 | STLWKASVFKFCYICLYQQW | 0.35 ± 0.95
167 | SITVPGFVAQISGVPIREYC | 0.348 ± 0.79
168 | KRNLRVHSTGIFRYRIWKA | -0.047 ± 0.48
169 | HNWSCQVHRDINLDRGAKES | 1.79 ± 0.4
170 | YWVILFPITIWSVKTSVGNH | 1.7 ± 0.31
171 | SGRLVSRGTKHNQSSRCE | -0.232 ± 0.9
